Values quoted from earlier work as cited in article PMC3950513.

Target: MukB (Escherichia coli) (UniProt P22523)
Sequence of UniProt P22523 (P22523 whole entry): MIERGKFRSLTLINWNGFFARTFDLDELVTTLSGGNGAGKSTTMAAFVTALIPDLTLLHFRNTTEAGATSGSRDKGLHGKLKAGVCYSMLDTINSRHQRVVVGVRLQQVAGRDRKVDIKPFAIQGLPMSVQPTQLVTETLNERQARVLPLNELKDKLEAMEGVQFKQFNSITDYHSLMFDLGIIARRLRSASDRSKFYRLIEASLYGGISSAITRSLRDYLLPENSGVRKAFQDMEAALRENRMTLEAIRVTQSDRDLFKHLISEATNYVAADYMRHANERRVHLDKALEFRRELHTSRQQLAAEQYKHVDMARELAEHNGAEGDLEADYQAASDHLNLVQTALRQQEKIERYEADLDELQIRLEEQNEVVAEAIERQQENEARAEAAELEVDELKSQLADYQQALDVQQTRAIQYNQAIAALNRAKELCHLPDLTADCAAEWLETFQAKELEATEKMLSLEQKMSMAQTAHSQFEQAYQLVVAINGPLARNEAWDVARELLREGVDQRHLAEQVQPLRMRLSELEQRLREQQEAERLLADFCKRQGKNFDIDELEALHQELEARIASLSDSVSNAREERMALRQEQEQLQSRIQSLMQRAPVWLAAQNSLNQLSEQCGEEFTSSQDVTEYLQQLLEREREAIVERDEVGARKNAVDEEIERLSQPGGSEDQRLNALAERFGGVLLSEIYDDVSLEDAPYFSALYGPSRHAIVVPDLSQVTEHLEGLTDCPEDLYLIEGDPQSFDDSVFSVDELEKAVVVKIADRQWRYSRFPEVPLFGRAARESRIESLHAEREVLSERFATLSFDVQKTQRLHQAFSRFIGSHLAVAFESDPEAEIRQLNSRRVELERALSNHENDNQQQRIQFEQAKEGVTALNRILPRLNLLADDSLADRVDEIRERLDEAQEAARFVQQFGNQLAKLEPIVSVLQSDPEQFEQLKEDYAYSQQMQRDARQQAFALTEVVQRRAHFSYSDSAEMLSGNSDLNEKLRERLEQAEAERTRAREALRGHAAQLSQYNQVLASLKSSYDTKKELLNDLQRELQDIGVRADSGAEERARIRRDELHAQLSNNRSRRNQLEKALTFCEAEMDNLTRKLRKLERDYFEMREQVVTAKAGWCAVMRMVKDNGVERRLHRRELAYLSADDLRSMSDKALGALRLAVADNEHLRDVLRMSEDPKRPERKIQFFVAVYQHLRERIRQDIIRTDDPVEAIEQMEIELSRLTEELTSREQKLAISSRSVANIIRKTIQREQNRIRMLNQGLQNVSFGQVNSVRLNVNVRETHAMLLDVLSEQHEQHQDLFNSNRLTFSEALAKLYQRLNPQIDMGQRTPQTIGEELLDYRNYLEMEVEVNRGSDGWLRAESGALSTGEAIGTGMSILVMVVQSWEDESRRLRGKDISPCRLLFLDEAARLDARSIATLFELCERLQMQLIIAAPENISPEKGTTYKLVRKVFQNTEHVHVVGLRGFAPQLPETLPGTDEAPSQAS

In the case of ParC (from UniProt P0AFI2), the Kd is given as 500 nM.
